The values that follow come from patent US20250122301A1 (IBIO, published 2025).

The chains are these.
T1: CD25 on CD25+ cells (SUDHL-1, HEK IL-2 reporter cells, primary human regulatory T cells) (human, UniProt P01589 22-272)
T1 construct: whole, on cells; also called IL-2Ralpha
T1 sequence (looked up): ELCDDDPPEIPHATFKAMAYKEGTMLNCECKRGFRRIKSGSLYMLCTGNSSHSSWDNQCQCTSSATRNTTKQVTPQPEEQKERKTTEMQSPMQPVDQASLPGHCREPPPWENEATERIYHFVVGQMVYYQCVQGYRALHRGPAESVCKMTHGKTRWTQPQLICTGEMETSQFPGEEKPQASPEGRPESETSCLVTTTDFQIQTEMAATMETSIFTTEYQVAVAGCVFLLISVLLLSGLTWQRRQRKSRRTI

B1: AH05259 (human IgG1 reformatted) (antibody, V domains shown)
VH: QVQLQQSGAELVRPGVSVKISCKGSGYTFTDYAMHWVKQSHAKSLEWIGVISTYSGDVSYNQKFKGKATMTVDKSSSTAYMELARLTSEDSAIYYCARGVTFDSWGQGTSLTVSS
VL: DIQMTQTPASLSASVGETVTITCRASENIYSFLEWFQQKQGKSPQLLVYNAKTLAEGVPSRFSVSGSGTQFSLKINSLQPEDFGSYYCQHHYGIPYTFGGGTKLEIK
B2: D36 (human IgG1 reformatted) (antibody, V domains shown)
VH: QVQLQQPGAELVRPGVSLKISCKGSGYTFTDYAMHWVRQSHAKSLEWIGVISTYSGDALYNQKFKGKATMTVDKSSSTAYLELARLTSEDSAIYYCARGVTFDYWGQGTTLTVSS
VL: DVVMTQSPASLSASVGETVTITCRASENSYSYLEWYQQKQGKSPQLLVYNAKTLAEGVPSRFSGSGSGTQFSLKINSLQPEDFGTYYCQHHYGTPYTFGGGTKLEMK
B3: AH05256 (human IgG1 reformatted) (antibody, V domains shown)
VH: QVQLQQPGAELAKPGASVKMSCKASGYTFTRYWIHWVKQRPGQDLEWIGYINPRTDYTEYNQKFKDKATLTADKSSSTAYMQLSSLTSDDSAVYYCARHGYFDYWGQGTTLTVSS
VL: DIQMTQTTSSLSASLGDRVTISCRASQDISNYLNWYQQKPDGTVKLLIYHTSRLQSGVPSRFTGSGSGTDYSLTISNLEQEDIATYFCQQSNSLPPTFGGGTKLEIK
B4: D5 (human IgG1 reformatted) (antibody, V domains shown)
VH: QVQLQQSGAELVRPGTSVKISCKASGYTFTNYWLGWVKQRPGHGLEWIGDIYPGGGYTNYNEKFKGKATLTADTSSSTAYMQLSSLTSEDSAVYFCARVTPASWGQGTSLTVSS
VL: DIVMTQSQKFMSTSVGDRVSVTCKASQNVGTNVAWYQQKPGQSPKALIYSASYRYSGVPDRFTGSGSGTDFTLTISNVQSEDLAEYFCQQYNSYPYTFGGGTKLEMK
B5: AH04524 (human IgG1 reformatted) (antibody, V domains shown)
VH: QIQLQQSGAELVRPGTSVKMSCKAAGYTFTNYWIGWVKQRPGHGLEWIGDIHPGGDYSNYNEKFKGKATLTADTSSSTAYMSLSSLTSEDSAIYYCTSRNFAYWGQGTLVTVSA
VL: DIVMTQSQKFMSTSVGDRVSVTCKASQNVGTNVAWYQQKPGQSPKALIYSASYRYSGVPDRFTGSGSGTDFTLTISNVQSEDLAEYFCQQYNSYPYTFGGGTKLEIK
notes: also called AH4524
B6: AH05274 (human IgG1 reformatted) (antibody, V domains shown)
VH: QVQLQQSGAELVRPGTSVKISCKASGYTFTNYWLGWIKQRPGHGLEWIGDIYPGGGYTNYNEKFKGKATLTADTSSSTAYMQLSSLTSEDSAVYFCARVTPASWGQGTSLTVSS
VL: DIQMTQSQKFMSTSVGDRVSVTCKASQNVGTNVAWYQQKPGQSPKALIYSASYRYSGVPDRFTGSGSGTDFTLTISNVQSEDLAEYFCQQYNSYPYTFGGGTKLEIK
B7: AH04518 (human IgG1 reformatted) (antibody, V domains shown)
VH: QVQLQQSGAELVRPGTSVKMSCKAAGYTFTNYWIGWVKQRPGHDLEWIGDIHPGGDYSNYNEKFKGKATLTADTSSSTAYMNLSSLTSEDSAIYYCTSRNFAYWGQGTLVTVSA
VL: DILLTQSQKFMSTSVGDRVSVTCKASQNVGTNVAWYQQKPGQSPKALIYSASYRYSGVPDRFTGSGSGTDFTLTISNVQSEDLAEYFCQQYNSYPYTFGGGTKLEIK
notes: also called AH4518
B8: AH04503 (human IgG1 reformatted) (antibody, V domains shown)
VH: QVQLQQPGAELVRPGTSVKMSCKAAGYTFSNYWIGWVKQRPGHGLEWIGDIHPGGGYINYNEKFTGKATLTADTSSSTAYMQLSSLTSEDSAIYYCVSRNFANWGQGTLVTVSA
VL: DIQMTQSQKFMSTSVGDRVSVTCKASQNVGTNVAWYQQKPGQSPKALIYSASYRYSGVPDRFTGSGSGTDFTLTISNVQSEDLAEYFCQQYNSYPWTFGGGTKLEIK
notes: also called AH4503
B9: AH04511 (human IgG1 reformatted) (antibody, V domains shown)
VH: QIQLQQSGAELVRPGTSVKMSCKAAGYTFSNYWIGWVKQRPGHGLEWIGDIHPGGGYINYNEKFTGKATLTADTSSSTAYMQLSSLTSEDSAIYYCVSRNFANWGQGTLVTVSA
VL: DIVMSQSQKFMSTSVGDRVSVTCKASQNVGTNVAWYQQKPGQSPKALIYSASYRYSGVPDRFTGSGSGTDFTLTISNVQSEDLAEYFCQQYNSYPYTFGGGTKLEIK
notes: also called AH4511
B10: BP003-T2P1D10 (human IgG1 reformatted) (antibody, V domains shown)
VH: QIQLQQPGAELVRPGTSVKISCKASGYTFTNYWLGWVKQRPGHGLEWIGDIYPGGGYTNYNEKFKGKATLTADTSSSTAYMQLSSLTSEDSAVYFCARVTPASWGQGTSLTVSS
VL: DIVITQSQKFMSTSVGDRVSVTCKASQNVGTNVAWYQQKPGQSPKALIYSASYRYSGVPDRLTGSGSGTDFTLTISNVQSEDLAEYFCQQYNRYPYTFGGGTKLEIK
B11: BP003-T2P1C4 (human IgG1 reformatted) (antibody, V domains shown)
VH: QVQLQQSGAELVRPGTSVKISCKASGYTFTNYWLGWVKQRPGHGLEWIGDIYPGGGYTNYNEKFKGKATLTADTSSSTAYMQLSSLTSEDSAVYFCARVTPASWGQGTTVTVSS
VL: DIQMTQSQKFMSASVGDRVSVTCKASQNVGTNVAWYQQKPGQSPKALIYSASYRYSGVPDRFTGSGSGTDFTLTISNVQSEDLAEYFCQQYNSYPYTFGGGTKLEMK
B12: AH04527 (human IgG1 reformatted) (antibody, V domains shown)
VH: QVQLQQSGAELVRPGTSVKMSCKAAGYTFTNYWIGWVKQRPGHGLEWIGDIHPGGGYIDYNEKFTGKATLTADTSSSTAYMQLSSLTSEDSAIYYCVSRNFAKWGQGTLVTVSA
VL: DVVMTQSQKFMSTSVGDRVSVTCKASQNVGTNVAWYQQKPGQSPKALIYSASYRYSGVPDRFTGSGSGTDFTLTISNVQSEDLAEYFCQQYNSYPYTFGGGTKLEIK
B13: AH04501 (human IgG1 reformatted) (antibody, V domains shown)
VH: QVQLQQPGAELVRPGTSVKMSCKAAGYTFTNYWIGWVKQRPGHGLEWIGDIHPGGDYSNYNEKFKGKATLTADTSSSTAYMNLSSLTSEDSAIYYCTSRNFAYWGQGTLVTVSA
VL: DVVMTQTQKFTSTSVGDRVSVTCKASQNVGTNVAWYQQKPGQSPKALIYSASYRYSGVPDRFTGSGSGTDFTLTISNVQSEDLAEYFCQQYNSYPYTFGGGTKLEIK
notes: also called AH4501
B14: AH04522 (human IgG1 reformatted) (antibody, V domains shown)
VH: QIQLQQSGAELVRPGTSVKMSCKAAGYTFTNYWIGWVKQRPGHGLEWIGDIHPGGGYTNYNEKFKGKATLTADTSSSTAYMQLSSLTSEDSAIYYCTSRNFAYWGQGTLVTVSA
VL: DTTVTQSQKFMSTSVGDRVSVTCKAGQNVGTNVAWYQQKPGQSPKALIYSASYRYSGVPDRFTGSGSGTDFTLTISNVQSEDLAEYFCQQYNSYPYTFGGGTKLEIK
B15: AH04507 (human IgG1 reformatted) (antibody, V domains shown)
VH: QVQLQQSGAELVRPGTSVKMSCKAAGYTFTNYWIGWVKQRPGHGLEWIGDIHPGGGYIDYNEKFTGKATLTADTSSSTAYMQLSSLTSEDSAIYYCVSRNFAKWGQGTLVTVSA
VL: DTTVTQSQKFMSTSVGDRVSVTCKASQNVGTNVAWYQQKPGQSPKALIYSASYRYSGVPDRFTGSGSGTDFTLTISNVQSEDLAEYFCQQYNSYPYTFGGGTKLEIK
B16: AH04523 (human IgG1 reformatted) (antibody, V domains shown)
VH: QIQLQQSGAELVRPGTSVKMSCKAAGYTFTNYWIGWVKQRPGHGLEWIGDIHPGGSYTNYNENFKGKATFTADTSSSTTYMQLSSLTSEDSAIYFCTSRNFAKWGQGTPVTVSS
VL: DIVLTQSQKFMSTSVGDRVSVTCKASQNVGTNVAWYQQKPGQSPKALIYSASYRYSGVPDRFTGSGSGTDFTLTISNVQSEDLAEYFCQQYNSYPYTFGGGTKLEIK
notes: also called AH4523
B17: D17 (human IgG1 reformatted) (antibody, V domains shown)
VH: QIQLQQSGAELVRPGTSVKISCKASGYTFTNYWLGWVKQRPGHGLEWIGDIYPGGGYTNYNEKFKGKATLTADTSSSTAYMQLSSLTSEDSAVYFCARVTPASWGQGTTLTVSA
VL: DILLTQSQKFMSTSVGDRVSVTCKASQNVGTNVAWYQQKPGQSPKALIYSASYRYSGVPDRFTGSGSGTDFTLTISNVQSEDLAEYFCQQYNSYPLTFGGGTKLEIK
B18: AH04526 (human IgG1 reformatted) (antibody, V domains shown)
VH: QVQLQQSGAELVRPGTSVKMSCKAAGYTFTNYWIGWVKQRPGHGLEWIGDIHPGGDYSNYNEKFKGKATLTADTSSSTAYMNLSSLTSEDSAIYYCTSRNFAYWGQGTPVTVSS
VL: DTTVTQSQKFMSTSVGDRVSVTCKASQNVGTNVAWYQQKPGQSPKALIYSASYRYSGVPDRFTGSGSGTDFTLTISNVQSEDLAEYFCQQYNSYPYTFGGGTKLEMK
B19: AH04502 (human IgG1 reformatted) (antibody, V domains shown)
VH: QIQLQQSGAELVRPGTSVKMSCKAAGYTFTNYWIGWVKQRPGHGLEWIGDIHPGGGYTNYNEKFKGKATLTADTSSSTADMQLSSLTSEDSAIYYCTSRNFAYWGQGTLVTVSA
VL: DIVMTQSQKFMSTSVGDRVSVTCKASQNVGINVAWYQQKPGQSPKALIYSASYRYSGVPDRFTGSGSGTDFTLTISNVQSEDLAEYFCQQYNSYPYTFGGGTKLEIK
notes: also called AH4502
B20: AH04505 (human IgG1 reformatted) (antibody, V domains shown)
VH: DVQLQQSGAELVRPGTSVKMSCKAAGYTFTNYWIGWVKQRPGHGLEWIGDIHPGGGYTNYNEKFKGKATLTADTSSSTAYMQLSSLTSEGSAIYYCTSRNFAYWGQGTLVTVSA
VL: DTTVTQSQKFMSTSVGDRVSVTCKASQNVGTNVAWYQQKPGQSPKALIYSASYRYSGVPDRFTGSGSGTDFTLTISNVQSEDLAEYFCQQYNSYPYTFGGGTKLEMK
notes: also called AH4505
B21: AH04525 (human IgG1 reformatted) (antibody, V domains shown)
VH: QVQLQQSGAELVRPGTSVKMSCKAAGYTFTNYWIGWIKQRPGHGLEWIGDIHPGGDYTNYNEKFKGKATLTADTFSSTAYMQLSSLTSEDSAIYYCTGRNFAYWGQGTLVTVSS
VL: DNVLTQSQKFMSTSVGDRVSVTCKASQNVGTNVAWYQQKPGQSPKALIYSASYRYSGVPDRFTGSGSGTDFTLTISNVQSEDLAEYFCQQYNSYPYTFGGGTKLEMK
notes: also called AH4525

For orientation: EC50 means the concentration that produces a half-maximal response. Lower therefore signals an effect from little substance.

In the assay the target is T1, CD25 on CD25+ cells (SUDHL-1, HEK IL-2 …). As to the kind of experiment: flow cytometry, dose response on CD25+ SUDHL-1 cells.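 Also: antibody binding to cells read as median fluorescence intensity of an AF647 anti-human Fc secondary, DAPI+ dead cells excluded, 20 min on ice, 5-fold dilutions from 10 ug/mL.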
Procedure: For each cell line, 100,000 cells were plated in a 96 well round bottom plate in cell buffer (PBS+2% HI FBS) and centrifuged. Antibody concentrations from 1-10 ug/mL were used to test the binding of each antibody. Cell were resuspended in 100 uL of antibodies/well and incubated for 20 minutes on ice. After incubation, cells were centrifuged at 300×g for 5 minutes at room temperature, and resuspended and washed with ice cold cell buffer. Cells were then stained with an anti-human Fc secondary antibody conjugated to AF647 (Biolegend) and incubated on ice for 20 min in the dark. Cells were centrifuged, washed and resuspended in cold cell buffer with DAPI and analyzed using flow cytometry (Cytoflex, Becton Dickinson). DAPI+ cell were excluded from analysis. The mean fluorescence intensity was calculated using the median (FlowJo, TreeStar).
As to B1, the response was half-maximal at 0.121 µg/mL (EC50).

B2 displayed an EC50 of 1.49 µg/mL.

The molecule B3 came in with an EC50 of 0.0715 µg/mL.

Turning to B4, the half-maximal effective concentration (EC50) stood at 0.603 µg/mL.

In turn, B5 yielded an EC50 of 0.116 µg/mL.

B6 came in with a 50% effective concentration (EC50) of 0.228 µg/mL.

In turn, B7 returned an EC50 of 0.114 µg/mL.

Take B8: the EC50 was 0.145 µg/mL.

With B9, the midpoint of the response, the EC50, lay at 0.108 µg/mL.

B10 came in with an EC50 of 0.165 µg/mL.

The molecule B11 came in with an EC50 of 0.294 µg/mL.

For the molecule B12, the EC50 was determined as 0.0959 µg/mL.

B13 returned an EC50 of 0.159 µg/mL.

B14 came in with an EC50 of 0.11 µg/mL.

B15 yielded an EC50 of 0.089 µg/mL.

The molecule B16 returned an EC50 of 0.108 µg/mL.

Molecule B17 gave an EC50 of 0.0957 µg/mL.

In turn, B18 displayed an EC50 of 0.164 µg/mL.

Molecule B19 gave an EC50 of 0.109 µg/mL.

With B20, the EC50 amounted to 0.106 µg/mL.

B21 showed an EC50 of 0.109 µg/mL.
